We go through 5 molecules from US20050070470A1 (ADMINISTRATORS OF THE TULANE EDUCATIONAL FUND, published 2005).

Bridges are numbered along the chain shown (N, C = ends). Where no end group is shown, it is not given here. [ ]: non-standard residue; d: D form. The star is where a group is joined. DOTA = O=C(O)CN1CCN(CC(=O)O)CCN(CC(=O)*)CCN(CC(=O)O)CC1

For the experiment, the target named is somatostatin subtype 2 rat receptor (rat, UniProt P30680 1-369). As to the kind of experiment: cell-based or functional assay.
somatostatin subtype 2 rat receptor, sequence (P30680 whole entry): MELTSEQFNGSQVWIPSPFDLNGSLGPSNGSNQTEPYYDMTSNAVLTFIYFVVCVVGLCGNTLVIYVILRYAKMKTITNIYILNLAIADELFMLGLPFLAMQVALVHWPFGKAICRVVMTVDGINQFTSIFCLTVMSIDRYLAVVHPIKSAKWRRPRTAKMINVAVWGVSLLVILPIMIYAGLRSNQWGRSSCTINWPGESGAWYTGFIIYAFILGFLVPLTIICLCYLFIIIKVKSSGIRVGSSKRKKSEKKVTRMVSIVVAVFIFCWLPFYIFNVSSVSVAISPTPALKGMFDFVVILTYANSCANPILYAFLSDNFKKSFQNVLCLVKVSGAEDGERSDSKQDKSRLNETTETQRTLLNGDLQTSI

B1: D-Ser-D-Ser-D-Ser-D-Ser-D-Ser-L-Lys-D-Ser-D-Ser-cyclo[L-Cys-L-Phe-D-Trp-L-Lys-L-Thr-L-Cys]-L-Thr-NH2 (peptide)
peptide: [dS][dS][dS][dS][dS]K[dS][dS]CF[dW]KTCT-NH2
modifications: disulfide 9-14; N-terminus assumed
SMILES: C[C@@H](O)[C@H](NC(=O)[C@@H]1CSSC[C@H](NC(=O)[C@@H](CO)NC(=O)[C@@H](CO)NC(=O)[C@H](CCCCN)NC(=O)[C@@H](CO)NC(=O)[C@@H](CO)NC(=O)[C@@H](CO)NC(=O)[C@@H](CO)NC(=O)[C@H](N)CO)C(=O)N[C@@H](Cc2ccccc2)C(=O)N[C@H](Cc2c[nH]c3ccccc23)C(=O)N[C@@H](CCCCN)C(=O)N[C@@H]([C@@H](C)O)C(=O)N1)C(N)=O
For B1, the “IC50 (nM), inhibition of GH release from primary cultures of rat pituitary cells” value (“IC50 (nM), inhibition of GH release” below) is 3.29 nM.

B2: DOTA-D-Ser-D-Ser-D-Ser-D-Ser-D-Ser-D-Ser-D-Ser-D-Ser-D-Ser-D-Ser-L-Lys-D-Tyr-D-Tyr-cyclo[L-Cys-L-Phe-D-Trp-L-Lys-L-Thr-L-Cys]-L-Thr-NH2 (peptide)
peptide: {DOTA}-[dS][dS][dS][dS][dS][dS][dS][dS][dS][dS]K[dY][dY]CF[dW]KTCT-NH2
modifications: disulfide 14-19
SMILES: C[C@@H](O)[C@H](NC(=O)[C@@H]1CSSC[C@H](NC(=O)[C@@H](Cc2ccc(O)cc2)NC(=O)[C@@H](Cc2ccc(O)cc2)NC(=O)[C@H](CCCCN)NC(=O)[C@@H](CO)NC(=O)[C@@H](CO)NC(=O)[C@@H](CO)NC(=O)[C@@H](CO)NC(=O)[C@@H](CO)NC(=O)[C@@H](CO)NC(=O)[C@@H](CO)NC(=O)[C@@H](CO)NC(=O)[C@@H](CO)NC(=O)[C@@H](CO)NC(=O)CN2CCN(CC(=O)O)CCN(CC(=O)O)CCN(CC(=O)O)CC2)C(=O)N[C@@H](Cc2ccccc2)C(=O)N[C@H](Cc2c[nH]c3ccccc23)C(=O)N[C@@H](CCCCN)C(=O)N[C@@H]([C@@H](C)O)C(=O)N1)C(N)=O
Turning to B2, the “IC50 (nM), inhibition of GH release” value amounted to 0.71 nM.

B3: D-Ser-D-Ser-D-Ser-D-Ser-D-Ser-D-Ser-D-Ser-D-Ser-D-Ser-D-Ser-D-Ser-D-Ser-D-Ser-D-Ser-D-Ser-L-Lys-D-Tyr-D-Tyr-cyclo[L-Cys-L-Phe-D-Trp-L-Lys-L-Thr-L-Cys]-L-Thr-NH2 (peptide)
peptide: [dS][dS][dS][dS][dS][dS][dS][dS][dS][dS][dS][dS][dS][dS][dS]K[dY][dY]CF[dW]KTCT-NH2
modifications: disulfide 19-24; N-terminus assumed
SMILES: C[C@@H](O)[C@H](NC(=O)[C@@H]1CSSC[C@H](NC(=O)[C@@H](Cc2ccc(O)cc2)NC(=O)[C@@H](Cc2ccc(O)cc2)NC(=O)[C@H](CCCCN)NC(=O)[C@@H](CO)NC(=O)[C@@H](CO)NC(=O)[C@@H](CO)NC(=O)[C@@H](CO)NC(=O)[C@@H](CO)NC(=O)[C@@H](CO)NC(=O)[C@@H](CO)NC(=O)[C@@H](CO)NC(=O)[C@@H](CO)NC(=O)[C@@H](CO)NC(=O)[C@@H](CO)NC(=O)[C@@H](CO)NC(=O)[C@@H](CO)NC(=O)[C@@H](CO)NC(=O)[C@H](N)CO)C(=O)N[C@@H](Cc2ccccc2)C(=O)N[C@H](Cc2c[nH]c3ccccc23)C(=O)N[C@@H](CCCCN)C(=O)N[C@@H]([C@@H](C)O)C(=O)N1)C(N)=O
In the case of B3, the “IC50 (nM), inhibition of GH release” value was 0.32 nM.

B4: Acetyl-D-Ser-D-Ser-D-Ser-D-Ser-D-Ser-D-Ser-D-Ser-D-Ser-D-Ser-D-Ser-L-Lys-D-Tyr-D-Tyr-cyclo[L-Cys-L-Phe-D-Trp-L-Lys-L-Thr-L-Cys]-L-Thr-NH2 (peptide)
peptide: Ac-[dS][dS][dS][dS][dS][dS][dS][dS][dS][dS]K[dY][dY]CF[dW]KTCT-NH2
modifications: disulfide 14-19
SMILES: CC(=O)N[C@H](CO)C(=O)N[C@H](CO)C(=O)N[C@H](CO)C(=O)N[C@H](CO)C(=O)N[C@H](CO)C(=O)N[C@H](CO)C(=O)N[C@H](CO)C(=O)N[C@H](CO)C(=O)N[C@H](CO)C(=O)N[C@H](CO)C(=O)N[C@@H](CCCCN)C(=O)N[C@H](Cc1ccc(O)cc1)C(=O)N[C@H](Cc1ccc(O)cc1)C(=O)N[C@H]1CSSC[C@@H](C(=O)N[C@H](C(N)=O)[C@@H](C)O)NC(=O)[C@H]([C@@H](C)O)NC(=O)[C@H](CCCCN)NC(=O)[C@@H](Cc2c[nH]c3ccccc23)NC(=O)[C@H](Cc2ccccc2)NC1=O
With B4, the “IC50 (nM), inhibition of GH release” value stood at 0.57 nM.

B5: D-Ser-D-Ser-D-Ser-D-Ser-D-Ser-D-Ser-D-Ser-D-Ser-D-Ser-D-Ser-L-Lys-D-Tyr-D-Tyr-cyclo[L-Cys-L-Phe-D-Trp-L-Lys-L-Thr-L-Cys]-L-Thr-NH2 (peptide)
peptide: [dS][dS][dS][dS][dS][dS][dS][dS][dS][dS]K[dY][dY]CF[dW]KTCT-NH2
modifications: disulfide 14-19; N-terminus assumed
SMILES: C[C@@H](O)[C@H](NC(=O)[C@@H]1CSSC[C@H](NC(=O)[C@@H](Cc2ccc(O)cc2)NC(=O)[C@@H](Cc2ccc(O)cc2)NC(=O)[C@H](CCCCN)NC(=O)[C@@H](CO)NC(=O)[C@@H](CO)NC(=O)[C@@H](CO)NC(=O)[C@@H](CO)NC(=O)[C@@H](CO)NC(=O)[C@@H](CO)NC(=O)[C@@H](CO)NC(=O)[C@@H](CO)NC(=O)[C@@H](CO)NC(=O)[C@H](N)CO)C(=O)N[C@@H](Cc2ccccc2)C(=O)N[C@H](Cc2c[nH]c3ccccc23)C(=O)N[C@@H](CCCCN)C(=O)N[C@@H]([C@@H](C)O)C(=O)N1)C(N)=O
Consider B5, for which the “IC50 (nM), inhibition of GH release” value came to 0.12 nM.
